# PMC12139779 (bioRxiv, 2025)
# T1: Human KLHDC2 (kelch domain, amino acids 1–362) (human, UniProt Q9Y2U9 1-362, biotin (biotinylated with BirA enzyme))
# T1 sequence: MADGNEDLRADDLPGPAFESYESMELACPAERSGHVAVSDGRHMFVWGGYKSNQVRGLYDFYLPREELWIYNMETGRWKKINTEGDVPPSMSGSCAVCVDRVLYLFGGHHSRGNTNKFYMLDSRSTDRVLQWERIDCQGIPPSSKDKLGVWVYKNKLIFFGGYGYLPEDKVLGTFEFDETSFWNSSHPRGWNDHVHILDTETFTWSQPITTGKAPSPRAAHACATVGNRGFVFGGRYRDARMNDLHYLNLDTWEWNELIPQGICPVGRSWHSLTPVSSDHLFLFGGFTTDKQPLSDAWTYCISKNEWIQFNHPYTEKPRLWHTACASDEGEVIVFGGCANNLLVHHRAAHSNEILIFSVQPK
# Molecular target: T1, Human KLHDC2 (kelch domain, amino acids …)
# Assay: fluorescence polarisation
binder,measurement,value
SPPPMAGG [SelK 8-mer (SPPPMAGG)],binding result,binds
